Assay results taken from publication PMC9482650, “Quantitative fragmentomics allow affinity mapping of interactomes” (Nature Communications, 2022).

T1: MPP7, Q5T2T1
T1 sequence (Q5T2T1 134-230, limits assumed, looked up): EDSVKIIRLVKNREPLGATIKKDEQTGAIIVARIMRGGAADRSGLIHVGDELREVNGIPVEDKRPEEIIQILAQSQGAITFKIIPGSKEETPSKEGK

T2: GRIP1_7, Q9Y3R0
T2 sequence (Q9Y3R0 999-1096, limits assumed, looked up): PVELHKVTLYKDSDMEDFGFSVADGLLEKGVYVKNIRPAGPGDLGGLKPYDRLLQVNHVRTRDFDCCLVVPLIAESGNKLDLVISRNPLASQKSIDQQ

T3: APBA1_2, Q02410
T3 sequence (Q02410 742-832, limits assumed, looked up): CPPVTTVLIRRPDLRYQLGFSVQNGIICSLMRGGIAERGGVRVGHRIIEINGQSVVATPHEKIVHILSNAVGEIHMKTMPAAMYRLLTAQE

T4: NHERF3_4, Q5T2W1
T4 sequence (Q5T2W1 373-468, limits assumed, looked up): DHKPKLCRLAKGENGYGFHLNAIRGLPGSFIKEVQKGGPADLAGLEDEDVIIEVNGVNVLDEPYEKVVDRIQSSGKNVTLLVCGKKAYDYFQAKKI

T5: APBA1_1, Q02410
T5 sequence (Q02410 651-752, limits assumed, looked up): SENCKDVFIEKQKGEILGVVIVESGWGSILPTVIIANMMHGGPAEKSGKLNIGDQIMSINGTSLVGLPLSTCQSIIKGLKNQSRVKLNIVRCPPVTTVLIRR

T6: DFNB31_2, Q9P202
T6 sequence (Q9P202 274-371, limits assumed, looked up): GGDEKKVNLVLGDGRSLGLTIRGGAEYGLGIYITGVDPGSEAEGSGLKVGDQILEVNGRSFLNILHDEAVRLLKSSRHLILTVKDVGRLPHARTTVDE

T7: DLG3_3, Q92796
T7 sequence (Q92796 374-475, limits assumed, looked up): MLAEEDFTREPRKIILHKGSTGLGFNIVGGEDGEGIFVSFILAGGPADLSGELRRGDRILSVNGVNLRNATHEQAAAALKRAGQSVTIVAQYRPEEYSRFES

T8: PDZD2_2, O15018
T8 sequence (O15018 329-429, limits assumed, looked up): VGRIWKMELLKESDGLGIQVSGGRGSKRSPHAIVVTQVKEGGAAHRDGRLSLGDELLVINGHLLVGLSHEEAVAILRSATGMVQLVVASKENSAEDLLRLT

T9: RADIL, Q96JH8
T9 sequence (Q96JH8 971-1071, limits assumed, looked up): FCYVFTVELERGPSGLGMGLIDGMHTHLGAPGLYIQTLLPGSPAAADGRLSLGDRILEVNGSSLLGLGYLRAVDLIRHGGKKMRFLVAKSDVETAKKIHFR

T10: SNTG2, Q9NY99
T10 sequence (Q9NY99 68-166, limits assumed, looked up): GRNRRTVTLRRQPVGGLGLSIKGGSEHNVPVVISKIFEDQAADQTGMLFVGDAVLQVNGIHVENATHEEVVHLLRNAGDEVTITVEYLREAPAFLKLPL

T11: GRIP1_4, Q9Y3R0
T11 sequence (Q9Y3R0 467-571, limits assumed, looked up): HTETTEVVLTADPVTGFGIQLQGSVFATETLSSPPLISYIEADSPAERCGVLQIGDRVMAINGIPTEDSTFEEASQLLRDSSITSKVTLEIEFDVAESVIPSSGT

B1: RRBP1, Q9P2E9 (peptide)
chain: GSSSKEGTSV
B2: CTBP1, Q13363 (peptide)
chain: ADRDHASDQL

What was measured:
Experiment in all cases: holdup assay
Set-up in all cases: key: below the threshold = too weak to quantify, mostly under pKd 3.1 to 4
Settings in all cases: plain residues with an end cap or a label only (N-terminal biotin on a linker: ado-ado)
[1] = target: T1, MPP7, Q5T2T1
[2] = target: AHNAK1, Q09666
[3] = target: Inadl_5, Q8NI35
[4] = target: Inadl_3, Q8NI35
[5] = target: LNX1_2, Q8TBB1
[6] = target: TJP1_3, Q07157
[7] = target: T2, GRIP1_7, Q9Y3R0
[8] = target: FRMPD2_3, Q68DX3
[9] = target: Inadl_2, Q8NI35
[10] = target: T3, APBA1_2, Q02410
[11] = target: Inadl_6, Q8NI35
[12] = target: HTRA2, O43464
[13] = target: DLG1_2, Q12959
[14] = target: DLG1_3, Q12959
[15] = target: T4, NHERF3_4, Q5T2W1
[16] = target: T5, APBA1_1, Q02410
[17] = target: SNX27, Q96L92
[18] = target: SCRIB_2, Q14160
[19] = target: MAGI3_2, Q5TCQ9
[20] = target: T6, DFNB31_2, Q9P202
[21] = target: T7, DLG3_3, Q92796
[22] = target: T8, PDZD2_2, O15018
[23] = target: TJP1_2, Q07157
[24] = target: T9, RADIL, Q96JH8
[25] = target: T10, SNTG2, Q9NY99
[26] = target: T11, GRIP1_4, Q9Y3R0
[27] = target: LNX1_3, Q8TBB1
LNX1_3, Q8TBB1, sequence (Q8TBB1 500-596): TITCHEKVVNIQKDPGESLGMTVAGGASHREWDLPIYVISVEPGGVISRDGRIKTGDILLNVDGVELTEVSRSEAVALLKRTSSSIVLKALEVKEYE

AHNAK1, Q09666, sequence (Q09666 4-100): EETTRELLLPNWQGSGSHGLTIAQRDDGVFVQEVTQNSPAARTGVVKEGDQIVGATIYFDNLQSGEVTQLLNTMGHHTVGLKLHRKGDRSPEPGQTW
Inadl_2, Q8NI35, sequence (Q8NI35 238-335): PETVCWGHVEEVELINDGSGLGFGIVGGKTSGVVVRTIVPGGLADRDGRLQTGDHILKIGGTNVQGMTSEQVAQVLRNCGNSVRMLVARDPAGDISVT
HTRA2, O43464, sequence (O43464 355-458): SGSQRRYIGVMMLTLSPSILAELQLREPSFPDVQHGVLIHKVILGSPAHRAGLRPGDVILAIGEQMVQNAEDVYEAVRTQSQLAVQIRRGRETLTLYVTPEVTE
Inadl_3, Q8NI35, sequence (Q8NI35 359-469): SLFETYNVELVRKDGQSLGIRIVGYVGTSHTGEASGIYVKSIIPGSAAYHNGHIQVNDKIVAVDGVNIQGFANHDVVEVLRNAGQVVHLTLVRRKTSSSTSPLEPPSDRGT
SCRIB_2, Q14160, sequence (Q14160 857-960): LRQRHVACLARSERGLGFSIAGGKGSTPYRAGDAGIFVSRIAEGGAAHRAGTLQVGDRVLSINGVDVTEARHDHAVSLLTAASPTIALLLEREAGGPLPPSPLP
Inadl_6, Q8NI35, sequence (Q8NI35 1058-1167): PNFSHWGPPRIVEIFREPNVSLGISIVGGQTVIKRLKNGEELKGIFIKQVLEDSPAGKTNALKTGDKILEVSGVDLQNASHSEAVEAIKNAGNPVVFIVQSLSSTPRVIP
DLG1_2, Q12959, sequence (Q12959 314-412): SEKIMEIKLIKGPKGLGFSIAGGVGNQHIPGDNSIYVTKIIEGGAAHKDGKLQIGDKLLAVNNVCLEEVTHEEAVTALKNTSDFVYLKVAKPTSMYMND
TJP1_2, Q07157, sequence (Q07157 181-274): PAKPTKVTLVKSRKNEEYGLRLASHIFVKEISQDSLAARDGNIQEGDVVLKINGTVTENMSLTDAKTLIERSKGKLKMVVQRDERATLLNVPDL
LNX1_2, Q8TBB1, sequence (Q8TBB1 371-470): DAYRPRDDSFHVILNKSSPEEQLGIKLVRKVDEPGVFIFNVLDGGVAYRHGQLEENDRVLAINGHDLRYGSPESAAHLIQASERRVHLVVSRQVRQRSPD
Inadl_5, Q8NI35, sequence (Q8NI35 673-780): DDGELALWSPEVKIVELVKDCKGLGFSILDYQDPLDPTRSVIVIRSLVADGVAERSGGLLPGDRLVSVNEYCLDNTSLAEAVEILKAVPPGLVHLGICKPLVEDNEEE
TJP1_3, Q07157, sequence (Q07157 416-512): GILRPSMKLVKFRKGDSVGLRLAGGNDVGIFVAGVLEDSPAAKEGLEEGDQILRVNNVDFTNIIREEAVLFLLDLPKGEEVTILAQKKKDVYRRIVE
DLG1_3, Q12959, sequence (Q12959 457-571): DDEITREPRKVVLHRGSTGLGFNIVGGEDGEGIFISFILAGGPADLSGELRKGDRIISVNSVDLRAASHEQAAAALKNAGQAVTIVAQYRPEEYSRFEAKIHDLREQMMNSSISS
MAGI3_2, Q5TCQ9, sequence (Q5TCQ9 398-503): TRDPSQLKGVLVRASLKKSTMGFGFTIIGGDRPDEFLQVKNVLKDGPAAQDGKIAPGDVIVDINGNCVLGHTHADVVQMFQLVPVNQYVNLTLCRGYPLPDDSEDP
FRMPD2_3, Q68DX3, sequence (Q68DX3 1073-1166): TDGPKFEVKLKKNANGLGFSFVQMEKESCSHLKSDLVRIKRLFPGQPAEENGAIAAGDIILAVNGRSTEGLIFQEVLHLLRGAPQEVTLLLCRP

Binder	pKd [1]	pKd [2]	pKd [3]	pKd [4]	pKd [5]	pKd [6]	pKd [7]	pKd [8]	pKd [9]	pKd [10]	pKd [11]	pKd [12]	pKd [13]	pKd [14]	pKd [15]	pKd [16]	pKd [17]	pKd [18]	pKd [19]	pKd [20]	further results
B1	below the threshold	below the threshold	below the threshold	below the threshold	3.49	below the threshold	below the threshold	below the threshold	below the threshold	4.38	below the threshold	below the threshold	4.45	3.57	below the threshold	below the threshold	4.1	4.11	4.51	below the threshold	pKd [21]: 3.71; pKd [22]: 4.82; pKd [23]: below the threshold; pKd [24]: below the threshold; pKd [25]: 3.59; pKd [26]: below the threshold; pKd [27]: below the threshold
B2	below the threshold	below the threshold	below the threshold	below the threshold	below the threshold	below the threshold	below the threshold	below the threshold	below the threshold	below the threshold	below the threshold	below the threshold	below the threshold	below the threshold	below the threshold	below the threshold	below the threshold	below the threshold	below the threshold	below the threshold	pKd [21]: below the threshold; pKd [22]: below the threshold; pKd [23]: below the threshold; pKd [24]: below the threshold; pKd [25]: below the threshold; pKd [26]: below the threshold; pKd [27]: below the threshold
